Biological target: full-length APP770 tagged with V5 (UniProt P05067-1 18-770)
Assay: cell-based or functional assay

Sequence of full-length APP770 tagged with V5 (P05067 18-770): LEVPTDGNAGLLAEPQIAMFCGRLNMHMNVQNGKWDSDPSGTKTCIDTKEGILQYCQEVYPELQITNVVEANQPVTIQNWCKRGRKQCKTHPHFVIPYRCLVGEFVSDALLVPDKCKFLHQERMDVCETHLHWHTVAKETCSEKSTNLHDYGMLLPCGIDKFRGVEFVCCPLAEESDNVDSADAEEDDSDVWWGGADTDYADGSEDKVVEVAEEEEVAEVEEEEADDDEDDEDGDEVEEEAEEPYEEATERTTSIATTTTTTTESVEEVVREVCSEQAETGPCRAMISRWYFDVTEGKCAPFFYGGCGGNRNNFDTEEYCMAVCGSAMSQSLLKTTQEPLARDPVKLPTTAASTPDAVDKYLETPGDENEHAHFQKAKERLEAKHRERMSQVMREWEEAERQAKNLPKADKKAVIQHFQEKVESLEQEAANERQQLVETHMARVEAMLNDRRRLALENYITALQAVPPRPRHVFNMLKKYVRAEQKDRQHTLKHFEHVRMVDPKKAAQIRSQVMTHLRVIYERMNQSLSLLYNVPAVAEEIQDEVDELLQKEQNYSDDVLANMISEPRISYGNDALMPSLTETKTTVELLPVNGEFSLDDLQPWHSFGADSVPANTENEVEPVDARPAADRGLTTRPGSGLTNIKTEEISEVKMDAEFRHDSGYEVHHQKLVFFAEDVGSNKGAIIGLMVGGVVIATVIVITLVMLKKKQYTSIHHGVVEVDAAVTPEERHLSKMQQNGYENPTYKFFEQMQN

B1: Fibronectin type III domain-containing protein 5 tagged with HA at the C-terminus (natural protein, mouse, UniProt Q8K4Z2 60-240, looked up)
chain: DSPSAPVNVTVRHLKANSAVVSWDVLEDEVVIGFAISQQKKDVRMLRFIQEVNTTTRSCALWDLEEDTEYIVHVQAISIQGQSPASEPVLFKTPREAEKMASKNKDEVTMKEMGRNQQLRTGEVLIIVVVLFMWAGVIALFCRQYDIIKDNEPNNNKEKTKSASETSTPEHQGGGLLRSKI
With B1 the “Aβ40 and Aβ42 secreted into the medium (ELISA) of HEK293 cells transfected with APP770-V5 and FNDC5-HA, with Aβ1–16 peptide treatment against without it” value was about 1.4 fold.

Source: publication PMC6201590, “Fibronectin type III domain-containing protein 5 interacts with APP and decreases amyloid β production in Alzheimer’s disease” (Molecular Brain, 2018)
